Results: patent US20170340735A1 (published 2017)
Changes are numbered by the printed parent chain.

T1: recombinant monomeric human TIGIT-His (human, UniProt Q495A1 22-141)
T1 construct: also called hTIGIT; not shown: His tag
T1 sequence: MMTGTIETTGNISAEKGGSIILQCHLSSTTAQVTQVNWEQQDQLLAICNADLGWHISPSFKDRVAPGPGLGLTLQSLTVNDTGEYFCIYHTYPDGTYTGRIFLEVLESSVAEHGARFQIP

T2: human PVRL4-His (human, UniProt Q96NY8 32-349)
T2 construct: also called Nectin-4; not shown: His tag
T2 sequence (looked up): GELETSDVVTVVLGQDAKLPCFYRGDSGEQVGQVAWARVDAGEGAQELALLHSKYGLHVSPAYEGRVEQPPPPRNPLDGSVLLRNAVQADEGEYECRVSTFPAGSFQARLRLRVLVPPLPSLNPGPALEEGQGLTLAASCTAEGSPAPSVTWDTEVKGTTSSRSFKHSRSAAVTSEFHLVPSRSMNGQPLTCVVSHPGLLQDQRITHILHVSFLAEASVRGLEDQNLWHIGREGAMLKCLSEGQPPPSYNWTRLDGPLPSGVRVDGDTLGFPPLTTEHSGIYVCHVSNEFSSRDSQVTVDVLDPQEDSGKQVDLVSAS

T3: human TIGIT on the cell surface (human, UniProt Q495A1 22-244)
T3 construct: Expressed on engineered Jurkat cells or naturally on human primary CD8+ T cells (the cells are named under assay); also called Human TIGIT Jurkat; human TIGIT expressing Jurkat cells
T3 sequence: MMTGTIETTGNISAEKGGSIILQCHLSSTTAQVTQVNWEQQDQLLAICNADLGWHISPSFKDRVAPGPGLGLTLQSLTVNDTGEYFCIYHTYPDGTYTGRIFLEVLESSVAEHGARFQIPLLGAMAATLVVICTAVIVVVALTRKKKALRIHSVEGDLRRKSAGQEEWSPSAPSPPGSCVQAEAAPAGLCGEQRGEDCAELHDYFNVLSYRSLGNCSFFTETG

B1: MAB1-IgG4 (antibody, V domains shown)
VH: QLQLQESGPGLVKPSETLSLTCTVSGGSITSSSYYWGWIRQPPGKGLEWIGSIYYSGATFYNPSLKSRVTISVDTSKNQFSLKLSSVTAADTAVYYCARDANYYGSAWAFDPWGQGTLVTVSS
VL: EIVLTQSPATLSLSPGERATLSCRASQSVSSYLAWYQQKPGQAPRLLIYDASNRATGIPARFSGSGSGTDFTLTISSLEPEDFAVYYCQQHFNLPTFGGGTKVEIKR
B2: MAB5-IgG4 (antibody, V domains shown)
VH: B1 VH with T30S, S32T, Y34H, A58S, S67G
VL: B1 VL
B3: MAB2-IgG4 (antibody, V domains shown)
VH: B1 VH with T30S, S33K, A58S
VL: B1 VL
B4: MAB4-IgG4 (antibody, V domains shown)
VH: B1 VH with T30S, S32T, Y34H, A58S, S106G
VL: B1 VL

Assays:
[1] = target: T4, recombinant monomeric cynomolgus monkey TIGIT-His (cynomolgus monkey); assay: MSD-SET solution equilibrium titration, monomeric antigen
T4 construct: also called Cyno TIGIT His; cTIGIT; not shown: His tag
Description: (§1) See Estep et al., supra, incorporated by reference in its entirety. Briefly, solution equilibrium titrations (SET) were performed in PBS+0.1% IgG-Free BSA (PBSF) with antigen (TIGIT monomer) held constant at 10-100 pM and incubated with 3- to 5-fold serial dilutions of Fab or mAbs starting at 10 pM-10 nM. Antibodies (20 nM in PBS) were coated onto standard bind MSD-ECL plates overnight at 4° C. or at room temperature for 30 min. Plates were then blocked by BSA for 30 min with shaking at 700 rpm, followed by three washes with wash buffer (PBSF+0.05% Tween 20). SET samples were applied and incubated on the plates for 150s with shaking at 700 rpm followed by one wash. Antigen captured on a plate was detected with 250 ng/mL sulfotag-labeled streptavidin in PBSF by incubation on the plate for 3 min. The plates were washed three times with wash buffer and then read on the MSD Sector Imager 2400 instrument using 1× Read Buffer T with surfactant. The percent free antigen was plotted as a function of titrated antibody in Prism and fit to a quadratic equation to extract the KD. To improve throughput, liquid handling robots were used throughout MSD-SET experiments, including SET sample preparation.

[2] = target: T1, recombinant monomeric human TIGIT-His; assay: as above
Description: as §1

[3] = target: T2, human PVRL4-His; assay: BLI, antibody on AHC sensor, human PVRL4-His in solution
Description: The BLI analysis was performed at 30° C. using 1× kinetics buffer as assay buffer. AHC sensors were first presoaked in assay buffer for greater than 5 minutes. Antibody (5 μg/mL) was captured on the sensor for 300 seconds. Sensors were then dipped in assay buffer for 120 seconds to establish a baseline before measuring binding to human PVRL4-His protein. Sensors were then dipped into human PVRL4-His (200 nM in assay buffer) for 200 seconds to measure association. Dissociation of PVRL4 was then measured by dipping sensors into assay buffer for 200 seconds. Results were analyzed using Octet® Data Analysis Software Version 8.2.0.7.

[4] = target: T3, human TIGIT on the cell surface; assay: flow cytometry, antibody titrated against labeled PVRL2-Fc binding to human TIGIT Jurkat cells
Description: (§2) Quantitative ligand blocking studies were conducted by using a cell surface TIGIT binding assay.

[5] = target: T3, human TIGIT on the cell surface; assay: flow cytometry, antibody titrated against labeled PVR-Fc binding to human TIGIT Jurkat cells
Description: as §2

[6] = target: T3, human TIGIT on the cell surface; assay: cell-based or functional assay
[7] = target: T4, recombinant monomeric cynomolgus monkey …; assay: BLI (ForteBio), IgG on AHQ sensor, 100 nM monomeric antigen, 1:1 model
Description: (§3) Quantitative binding of antibodies to recombinant monomeric human, mouse (SEQ ID NO: 3), cynomolgus monkey TIGIT was measured using biolayer interferometry (BLI) with a FORTEBIO®. […] FORTEBIO affinity measurements were performed by loading IgGs on-line onto AHQ sensors. Sensors were equilibrated off-line in assay buffer for 30 min and then monitored on-line for 60 seconds for baseline establishment. Sensors with loaded IgGs were exposed to a single concentration of antigen (100 nM) for 3 minutes. Afterwards they were transferred to assay buffer for 3 minutes for off-rate measurement. Kinetics were analyzed using the 1:1 binding model.

[8] = target: T1, recombinant monomeric human TIGIT-His; assay: as above
Description: as §3

[9] = target: T1, recombinant monomeric human TIGIT-His; assay: BLI (Octet QKe), antibody on AHC sensor, several concentrations of human TIGIT-His, 1:1 global fit, average
Description: A strategy of capturing anti-TIGIT antibodies on sensors following association/dissociation of monomeric TIGIT proteins was used to avoid avidity effects in the assay. The BLI analysis was performed at 29° C. using 1× kinetics buffer (ForteBio) as assay buffer. Anti-human IgG Fc capture (AHC) biosensors (ForteBio) were first presoaked in assay buffer for over five minutes. Anti-TIGIT antibody (5 μg/mL) was captured on the sensor for 300 seconds. Sensors were then dipped in assay buffer for 120 seconds to establish a baseline before measuring binding to each TIGIT protein. […] Dissociation of TIGIT was measured by dipping the sensors into assay buffer for 600, 1200, or 1800 seconds, depending on the experiment (600 seconds was only used for mouse TIGIT-His). Agitation at all steps was 1000 rpm.
Kinetic parameters were generated with Octet® Data Analysis Software Version 8.2.0.7 using reference subtraction, dissociation based inter-step correction, 1-to-1 binding model, and global fit (Rₘₐₓ unlinked by sensor).

T4 sequence (chain, as listed by the source limits assumed): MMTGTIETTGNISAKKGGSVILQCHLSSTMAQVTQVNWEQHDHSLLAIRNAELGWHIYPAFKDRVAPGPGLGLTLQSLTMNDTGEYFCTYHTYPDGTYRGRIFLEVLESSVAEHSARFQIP

Row | Binder | Kd [1] [nM] | Kd [2] [nM] | binding result [3] | IC50 [4] [nM] | IC50 [5] [nM] | Average EC50, IL-2 production, human TIGIT Jurkat/anti-CD3 HT-1080 co-culture assay [6] [nM] | Kd [7] [nM] | Kd [8] [nM] | Kd [9] [nM] | koff [9] [s⁻¹] | kon [9] [M⁻¹ s⁻¹]
1 | B1 | 0.32 | 0.054 | no binding (tested: 200 nM) | 1.4 | 2.2 | 0.22 | 2.64 | 0.524 |  |  | 
2 | B2 | 0.046 | 0.0049 | no binding (tested: 200 nM) | 1.4 | 1.7 | 0.34 | 0.898 | 0.196 | 0.19 | 0.00014 | 770000
3 | B3 | 0.23 | 0.025 | no binding (tested: 200 nM) | 1.3 | 2.3 | 0.31 | 1.57 | 0.457 | 0.71 | 0.00023 | 320000
4 | B4 | 0.015 | 0.005 | no binding (tested: 200 nM) | 1.6 | 1.9 | 0.34 | 0.369 | 0.246 | 0.081 | 6.3e-05 | 700000
